Target: MuvB complex (LIN9 94-542, LIN37, LIN52, LIN54 504-749, RBAP48) (Homo sapiens, UniProt Q5TKA1;Q96GY3;Q52LA3;Q6MZP7;Q09028 94-542;1-246;1-112;504-749;1-425)
Test: fluorescence polarization; Kd value only in figure table; FP nucleosomes/601: 50 mM Tris pH 7.5, 150 mM NaCl, 1 mM DTT, 0.1% Tween-20, 20 nM probe (stated for peptide); FP TTK: 20 nM DNA, 20 mM Tris pH 8.0, 150 mM NaCl, 0.1% Tween-20; temperature not stated
Details: protein: recombinant; tags: GST/Strep/His tags removed by TEV; copies: 1;1;1;1;1; label: fluorescein

B1: TTK promoter 40-bp fragment (dsDNA)
DNA 1: GTGATAGCGACGGGGAAATTCAAACGTGTTTGCGGAAAGG
DNA 2: CCTTTCCGCAAACACGTTTGAATTTCCCCGTCGCTATCAC
B1: binds.

Reference: article PMC8792015, “The MuvB complex binds and stabilizes nucleosomes downstream of the transcription start site of cell-cycle dependent genes”
